One assay has as its target T1, cynomolgus MCSP D3 (cynomolgus, UniProt Q6UVK1 1582-2224 (human entry), limits assumed).
T1 construct: Recombinant, captured through anti-Penta His in the avidity set-up; also called Cyno MCSP; cynomolgus homologue
T1 chain: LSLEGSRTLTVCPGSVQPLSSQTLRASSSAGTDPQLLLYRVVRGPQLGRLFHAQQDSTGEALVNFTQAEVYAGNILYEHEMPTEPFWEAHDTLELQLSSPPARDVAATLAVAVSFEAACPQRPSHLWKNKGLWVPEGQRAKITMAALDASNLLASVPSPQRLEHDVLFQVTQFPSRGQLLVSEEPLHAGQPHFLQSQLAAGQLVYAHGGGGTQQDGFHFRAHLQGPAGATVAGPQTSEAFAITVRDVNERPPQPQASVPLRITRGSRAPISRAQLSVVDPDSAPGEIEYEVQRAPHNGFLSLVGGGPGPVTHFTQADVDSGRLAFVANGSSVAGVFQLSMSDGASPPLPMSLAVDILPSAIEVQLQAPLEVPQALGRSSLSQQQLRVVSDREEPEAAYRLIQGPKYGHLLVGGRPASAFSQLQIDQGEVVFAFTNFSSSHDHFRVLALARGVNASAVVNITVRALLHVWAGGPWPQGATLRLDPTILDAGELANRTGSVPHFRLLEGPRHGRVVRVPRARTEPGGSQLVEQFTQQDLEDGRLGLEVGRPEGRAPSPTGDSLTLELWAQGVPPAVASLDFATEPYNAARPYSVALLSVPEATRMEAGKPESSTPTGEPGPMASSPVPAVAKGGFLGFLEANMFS
The assay can be described thus: SPR ProteOn XPR36; parental M4-3/ML2 IgG KD against variant IgG KD.

Assay [1] concerns the target T2, human MCSP(D3 domain)-avi-his (human, UniProt Q6UVK1 1582-2224).
T2 construct: Recombinant D3 domain of MCSP (CSPG4) with avi and his tags; also called hu-MCSP(D3 domain)-avi-his; human MCSP antigen
T2 sequence: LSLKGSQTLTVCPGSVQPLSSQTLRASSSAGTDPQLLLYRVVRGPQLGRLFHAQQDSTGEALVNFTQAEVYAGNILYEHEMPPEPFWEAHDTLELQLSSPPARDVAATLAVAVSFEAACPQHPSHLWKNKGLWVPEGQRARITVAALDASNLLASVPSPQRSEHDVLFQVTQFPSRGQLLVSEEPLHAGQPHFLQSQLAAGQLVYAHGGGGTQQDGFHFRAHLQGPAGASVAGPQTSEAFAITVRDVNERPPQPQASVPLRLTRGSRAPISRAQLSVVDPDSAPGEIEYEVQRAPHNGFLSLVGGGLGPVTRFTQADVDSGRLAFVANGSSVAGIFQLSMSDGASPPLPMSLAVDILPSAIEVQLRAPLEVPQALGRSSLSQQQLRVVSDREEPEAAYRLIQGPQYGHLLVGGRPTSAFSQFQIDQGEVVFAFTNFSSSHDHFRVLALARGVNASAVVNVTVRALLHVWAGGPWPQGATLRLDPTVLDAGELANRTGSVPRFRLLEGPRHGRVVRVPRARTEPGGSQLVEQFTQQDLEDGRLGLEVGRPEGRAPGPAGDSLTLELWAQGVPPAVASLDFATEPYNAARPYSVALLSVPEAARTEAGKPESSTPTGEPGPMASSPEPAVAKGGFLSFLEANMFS
The assay is described as above.

From US20190002564A1 (Hoffmann-La Roche, published 2019) come the findings set out here.

B1: M4-3(A7)/ML2(E10) IgG (antibody, V domains shown)
VH: QVQLQESGPGLVKPSQTLSLTCTVSGGSITDGYYWNWIRQHPGKGLEWIGYITFDGRNNYNPSLKSRVTISRDTSKNQFSLKLSSVTAADTAVYYCADFDYWGQGTLVTVSS
VL: DIQMTQSPSSLSASVGDRVTITCRASYGIRGYLNWYQQKPGKAPKLLIYYTSSLHSGVPSRFSGSGSGTDFTLTISSLQPEDFATYHCQQYSKLPWTFGQGTKVEIK
notes: Human IgG1 format, purified from mammalian production
On to B1, for which the “Fold increase over parent (IgG KD)” value with cynomolgus MCSP D3 is 2.9 fold; in assay [1], 6.7 fold.

B2: M4-3(B7)/ML2 IgG (antibody, V domains shown)
VH: QVQLQESGPGLVKPSQTLSLTCTVSGGSITSGYYWNWIRQHPGKGLEWIGYITFDGINNYNPSLKSRVTISRDTSKNQFSLKLSSVTAADTAVYYCADFDYWGQGTLVTVSS
VL: DIQMTQSPSSLSASVGDRVTITCRASQGIRNYLNWYQQKPGKAPKLLIYYTSSLHSGVPSRFSGSGSGTDFTLTISSLQPEDFATYYCQQYSKLPWTFGQGTKVEIK
notes: as for B1
Take B2: the “Fold increase over parent (IgG KD)” value with cynomolgus MCSP D3 is 2.9 fold; in assay [1] it was 4 fold.

B3: M4-3(A7)/ML2(C5) IgG (antibody, V domains shown)
VH: QVQLQESGPGLVKPSQTLSLTCTVSGGSITDGYYWNWIRQHPGKGLEWIGYITFDGRNNYNPSLKSRVTISRDTSKNQFSLKLSSVTAADTAVYYCADFDYWGQGTLVTVSS
VL: DIQMTQSPSSLSASVGDRVTITCRASRGIREYLNWYQQKPGKAPKLLIYYTGSLHSGVPSRFSGSGSGTDFTLTISSLQPEDFATYYCQQYSELPWTFGQGTKVEIK
notes: as for B1
As to B3, the figures for the “Fold increase over parent (IgG KD)” value (in the assay with cynomolgus MCSP D3; in assay [1]) were 10 fold and 28.6 fold, respectively.

B4: M4-3(C1)/ML2(E10) IgG (antibody, V domains shown)
VH: QVQLQESGPGLVKPSQTLSLTCTVSGGSITSGYYWNWIRQHPGKGLEWIGYITFDGSNNYNPSLKSRVTISRDTSKNQFSLKLSSVTAADTAVYYCADFDYWGQGTLVTVSS
VL: DIQMTQSPSSLSASVGDRVTITCRASYGIRGYLNWYQQKPGKAPKLLIYYTSSLHSGVPSRFSGSGSGTDFTLTISSLQPEDFATYHCQQYSKLPWTFGQGTKVEIK
notes: Human IgG1 format, produced in HEK293-EBNA
In the case of B4, the “Fold increase over parent (IgG KD)” value with cynomolgus MCSP D3 came to 3.3 fold; in assay [1] it was 4 fold.

B5: M4-3/ML2(G3) IgG (antibody, V domains shown)
VH: QVQLQESGPGLVKPSQTLSLTCTVSGGSITSGYYWNWIRQHPGKGLEWIGYITYDGSNNYNPSLKSRVTISRDTSKNQFSLKLSSVTAADTAVYYCADFDYWGQGTLVTVSS
VL: DIQMTQSPSSLSASVGDRVTITCRASQGIRNYLNWYQQKPGKAPKLLIYYTSSLHSGVPSRFSGSGSGTDYTLTISSLQPEDFATYYCQQYSALPWTFGQGTKVEIK
notes: as for B1
As to B5, the figures for the “Fold increase over parent (IgG KD)” value (with cynomolgus MCSP D3; in assay [1]) were 3.3 fold and 6.7 fold, respectively.

B6: M4-3/ML2(E10/G3) IgG (antibody, V domains shown)
VH: QVQLQESGPGLVKPSQTLSLTCTVSGGSITSGYYWNWIRQHPGKGLEWIGYITYDGSNNYNPSLKSRVTISRDTSKNQFSLKLSSVTAADTAVYYCADFDYWGQGTLVTVSS
VL: DIQMTQSPSSLSASVGDRVTITCRASYGIRGYLNWYQQKPGKAPKLLIYYTSSLHSGVPSRFSGSGSGTDFTLTISSLQPEDFATYHCQQYSALPWTFGQGTKVEIK
notes: as for B1
Regarding B6, the “Fold increase over parent (IgG KD)” value was 2.2 fold with cynomolgus MCSP D3 and 5 fold in assay [1].

B7: M4-3(A7)/ML2 IgG (antibody, V domains shown)
VH: QVQLQESGPGLVKPSQTLSLTCTVSGGSITDGYYWNWIRQHPGKGLEWIGYITFDGRNNYNPSLKSRVTISRDTSKNQFSLKLSSVTAADTAVYYCADFDYWGQGTLVTVSS
VL: DIQMTQSPSSLSASVGDRVTITCRASQGIRNYLNWYQQKPGKAPKLLIYYTSSLHSGVPSRFSGSGSGTDFTLTISSLQPEDFATYYCQQYSKLPWTFGQGTKVEIK
notes: as for B1
As to B7, the results for the “Fold increase over parent (IgG KD)” value (with cynomolgus MCSP D3; in assay [1]) were 2 fold and 2.5 fold, respectively.

B8: M4-3/ML2(C5) IgG (antibody, V domains shown)
VH: QVQLQESGPGLVKPSQTLSLTCTVSGGSITSGYYWNWIRQHPGKGLEWIGYITYDGSNNYNPSLKSRVTISRDTSKNQFSLKLSSVTAADTAVYYCADFDYWGQGTLVTVSS
VL: DIQMTQSPSSLSASVGDRVTITCRASRGIREYLNWYQQKPGKAPKLLIYYTGSLHSGVPSRFSGSGSGTDFTLTISSLQPEDFATYYCQQYSELPWTFGQGTKVEIK
notes: as for B1
Take B8: the “Fold increase over parent (IgG KD)” value with cynomolgus MCSP D3 is 2 fold; in assay [1], 5 fold.

B9: M4-3(C1)/ML2(C5) IgG (antibody, V domains shown)
VH: QVQLQESGPGLVKPSQTLSLTCTVSGGSITSGYYWNWIRQHPGKGLEWIGYITFDGSNNYNPSLKSRVTISRDTSKNQFSLKLSSVTAADTAVYYCADFDYWGQGTLVTVSS
VL: DIQMTQSPSSLSASVGDRVTITCRASRGIREYLNWYQQKPGKAPKLLIYYTGSLHSGVPSRFSGSGSGTDFTLTISSLQPEDFATYYCQQYSELPWTFGQGTKVEIK
notes: as for B4
Regarding B9, the “Fold increase over parent (IgG KD)” value in the assay with cynomolgus MCSP D3 was determined as 6.7 fold; in assay [1], 10 fold.

B10: M4-3(D6)/ML2 IgG (antibody, V domains shown)
VH: QVQLQESGPGLVKPSQTLSLTCTVSGGSITSGYYWNWIRQHPGKGLEWIGYITFDGKNNYNPSLKSRVTISRDTSKNQFSLKLSSVTAADTAVYYCADFDYWGQGTLVTVSS
VL: DIQMTQSPSSLSASVGDRVTITCRASQGIRNYLNWYQQKPGKAPKLLIYYTSSLHSGVPSRFSGSGSGTDFTLTISSLQPEDFATYYCQQYSKLPWTFGQGTKVEIK
notes: as for B1
In the case of B10, the figures for the “Fold increase over parent (IgG KD)” value (in the assay with cynomolgus MCSP D3; in assay [1]) were 2 fold and 5 fold, respectively.

B11: M4-3/ML2(E10) IgG (antibody, V domains shown)
VH: QVQLQESGPGLVKPSQTLSLTCTVSGGSITSGYYWNWIRQHPGKGLEWIGYITYDGSNNYNPSLKSRVTISRDTSKNQFSLKLSSVTAADTAVYYCADFDYWGQGTLVTVSS
VL: DIQMTQSPSSLSASVGDRVTITCRASYGIRGYLNWYQQKPGKAPKLLIYYTSSLHSGVPSRFSGSGSGTDFTLTISSLQPEDFATYHCQQYSKLPWTFGQGTKVEIK
notes: as for B1
Turning to B11, the results for the “Fold increase over parent (IgG KD)” value (in the assay with cynomolgus MCSP D3; in assay [1]) were 1 fold and 2 fold, respectively.

B12: M4-3(C1)/ML2 IgG (antibody, V domains shown)
VH: QVQLQESGPGLVKPSQTLSLTCTVSGGSITSGYYWNWIRQHPGKGLEWIGYITFDGSNNYNPSLKSRVTISRDTSKNQFSLKLSSVTAADTAVYYCADFDYWGQGTLVTVSS
VL: DIQMTQSPSSLSASVGDRVTITCRASQGIRNYLNWYQQKPGKAPKLLIYYTSSLHSGVPSRFSGSGSGTDFTLTISSLQPEDFATYYCQQYSKLPWTFGQGTKVEIK
notes: as for B1
For the molecule B12, the “Fold increase over parent (IgG KD)” value with cynomolgus MCSP D3 was found to be 2.5 fold; in assay [1] it was 2.2 fold.

B13: M4-3(B8)/ML2 IgG (antibody, V domains shown)
VH: QVQLQESGPGLVKPSQTLSLTCTVSGGSITSGYYWNWIRQHPGKGLEWIGYITFDGRNNYNPSLKSRVTISRDTSKNQFSLKLSSVTAADTAVYYCADFDYWGQGTLVTVSS
VL: DIQMTQSPSSLSASVGDRVTITCRASQGIRNYLNWYQQKPGKAPKLLIYYTSSLHSGVPSRFSGSGSGTDFTLTISSLQPEDFATYYCQQYSKLPWTFGQGTKVEIK
notes: as for B1
Take B13: the “Fold increase over parent (IgG KD)” value in the assay with cynomolgus MCSP D3 came out at 2 fold; in assay [1], 2.2 fold.

B14: M4-3(A7)/ML2(G3) IgG (antibody, V domains shown)
VH: QVQLQESGPGLVKPSQTLSLTCTVSGGSITDGYYWNWIRQHPGKGLEWIGYITFDGRNNYNPSLKSRVTISRDTSKNQFSLKLSSVTAADTAVYYCADFDYWGQGTLVTVSS
VL: DIQMTQSPSSLSASVGDRVTITCRASQGIRNYLNWYQQKPGKAPKLLIYYTSSLHSGVPSRFSGSGSGTDYTLTISSLQPEDFATYYCQQYSALPWTFGQGTKVEIK
notes: as for B1
Regarding B14, the “Fold increase over parent (IgG KD)” value is 10 fold with cynomolgus MCSP D3 and 28.6 fold in assay [1].

B15: M4-3/ML2(C5/G3) IgG (antibody, V domains shown)
VH: QVQLQESGPGLVKPSQTLSLTCTVSGGSITSGYYWNWIRQHPGKGLEWIGYITYDGSNNYNPSLKSRVTISRDTSKNQFSLKLSSVTAADTAVYYCADFDYWGQGTLVTVSS
VL: DIQMTQSPSSLSASVGDRVTITCRASRGIREYLNWYQQKPGKAPKLLIYYTGSLHSGVPSRFSGSGSGTDFTLTISSLQPEDFATYYCQQYSALPWTFGQGTKVEIK
notes: as for B1
Take B15: the “Fold increase over parent (IgG KD)” value in the assay with cynomolgus MCSP D3 stood at 2 fold; in assay [1], 2.9 fold.
